The target in one test is hen egg lysozyme (hen) (UniProt P00698). The test is described as follows: ELISA on HEL-coated plate, detection via myc tag (9e10) and anti mouse IgG-HRP.
The target in test [1] is human TNFR1 on HeLa cells (human) (UniProt P19438). The test is described as follows: cell-based or functional assay.
Chain of human TNFR1 on HeLa cells (human) (P19438 30-455): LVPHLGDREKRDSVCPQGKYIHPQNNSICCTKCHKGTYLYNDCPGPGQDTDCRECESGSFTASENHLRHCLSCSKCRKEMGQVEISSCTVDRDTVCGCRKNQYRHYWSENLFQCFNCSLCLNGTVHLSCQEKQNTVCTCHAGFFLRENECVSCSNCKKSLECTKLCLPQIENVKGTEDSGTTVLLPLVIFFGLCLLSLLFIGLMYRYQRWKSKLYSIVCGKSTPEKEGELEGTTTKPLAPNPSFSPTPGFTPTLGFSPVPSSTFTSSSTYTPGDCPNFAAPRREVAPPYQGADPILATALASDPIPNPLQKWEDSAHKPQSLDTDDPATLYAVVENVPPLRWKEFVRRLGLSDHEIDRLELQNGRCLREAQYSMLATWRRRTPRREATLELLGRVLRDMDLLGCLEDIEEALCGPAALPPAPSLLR

Chain of hen egg lysozyme (hen) (P00698 19-147): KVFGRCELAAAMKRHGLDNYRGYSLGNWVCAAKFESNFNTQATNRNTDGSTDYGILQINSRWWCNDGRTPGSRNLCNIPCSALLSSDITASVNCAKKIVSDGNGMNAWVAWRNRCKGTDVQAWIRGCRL

B1: VH CH/VH CK dual specific Fab like fragment (HEL4 CH / TAR2-5 CK) (bispecific antibody, from a related filing, V domains shown)
V domain 1: EVQLLESGGGLVQPGGSLRLSCAASGFRISDEDMGWVRQAPGKGLEWVSSIYGPSGSTYYADSVKGRFTISRDNSKNTLYLQMNSLRAEDTAVYYCASALEPLSEPLGFWGQGTLVTVSS
V domain 2: EVQLLESGGGLVQPGGSLRLSCAASGFTFDLYNMFWVRQAPGKGLEWVSFISQTGRLTWYADSVKGRFTISRDNSKNTLYLQMNSLRAEDTAVYYCAKTLEDFDYWGQGTLVTVSS
modifications: left off: a dimerising Fc or GST; small tags and cut ends
For the molecule B1, the ELISA signal in the test with hen egg lysozyme (hen) was found to be 0.154.

B2: TAR2h-10-55 (protein)
chain: EVQLLESGGGLVQPGGSLRLSCAASGFPFEWYWMGWVRQAPGKGLEWVSAISGSGDSTYYADSVKGRFTISRDNSKNTLYQQMNSLRAEDAAVYYCAKVKLGGGPNFGYRGQGTLVTVSS
For B2, the HeLa IL-8 Cell Assay, Activity (IC50) in test [1] was 20 nM.

(Values after patent US20060002935A1.)
